3 substances from patent US20210269501A1 can be followed below.

In the assay the target is NKG2D ligands (NKG2DLs) on human TNBC cell lines. The assay can be described thus: cell-based or functional assay.
As to NKG2D_41BB_CD3Zeta CAR (receptor), the cytotoxicity (overnight luminescence based assay, MDA-MB-231 fLuc) was > 60%.
The same measure for NKG2D_CD3Zeta CAR (receptor): > 60%; for NKG2D_CD27_CD3Zeta CAR (receptor): > 60%.
